# The supplement of paper PMC10567573
# ± gives the standard deviation.
# Assay: protein stability index of a GFP-peptide fusion (GPS, HEK-293T) (PSI 1-6); higher = more stable
# [1] = treatment: DMSO, c terminus: a fixed tail appended
# [2] = treatment: MLN4924 1 uM, 8 h, c terminus: a fixed tail appended
# 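Note: 24-mer peptide tiles fused after GFP, lentivirally expressed, FACS-sorted into six equal bins by GFP/DsRed ratio, decoded by Illumina sequencing, PSI is the read-weighted mean bin number.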
Sequence,protein stability index [1],protein stability index [2],"protein stability index (treatment: DMSO, c terminus: native)","protein stability index (treatment: MLN4924 1 uM, 8 h, c terminus: native)"
SMQEDEQSGRDLQQYQSQAKQLFR [SEC22B],4.22 ± 0.17,4.35 ± 0.19,–,–
SNFEQTQIQEFKEAFTLMDQNRDG [MYL5],5.11 ± 0.2,4.93 ± 0.33,–,–
SNLSTRDASILTEMPTQPGKPLIP [NETO1],4.52 ± 0.18,4.57 ± 0.26,–,–
SPAKASQASKLRASKEEKEDWLSH [FBF1],4.92 ± 0.37,4.92 ± 0.3,–,–
SPNFGFMGQLLQYESEILPSTPNP [DUSP5],3.59 ± 0.092,3.45 ± 0.48,–,–
SPSKSFWTRITCAEEGWSPTPKCL [CFHR2],2.17 ± 0.22,2.47 ± 0.33,–,–
SPVTRTRSLSACNKRVGMYLEGFD [DLC1],3 ± 0.3,3.19 ± 0.3,–,–
SQAPVNKPKKKKEKKEKEKKKKDK [BRD3],5.32 ± 0.32,5.3 ± 0.32,–,–
SQNIQEDDLQQLQLFTEYGRLAMD [ATL3],4.3 ± 0.27,4.09 ± 0.47,–,–
SQRAMLLQGTESLNRATQSIERSH [VTI1B],4.27 ± 0.13,4.35 ± 0.21,–,–
SQVRALDRFQVPTTEVNAWLVHRD [NFE2L1],3.37 ± 0.47,3.33 ± 0.48,–,–
SSAASLIDFLRVVRNQQSLAVSNM [PTPN9],2.26 ± 0.43,2.1 ± 0.26,–,–
SSDESPGSKCSPEDLATAYNNRGQ [TTC32],5.28 ± 0.18,5.44 ± 0.12,–,–
SSEKLNLQKDLETRPTQHELRLYK [CEP70],4.12 ± 0.16,4.1 ± 0.36,–,–
SSNVSLSLFVLDQNDNAPEILYPA [PCDHGA10],2.48 ± 0.13,2.38 ± 0.29,–,–
SSNYFSPRESTDFSSSSQEAFAAS [ZBTB22],4.41 ± 0.17,4.41 ± 0.15,–,–
SSTCGQLASYPLALVRTRMQAQAS [SLC25A25],2.74 ± 0.23,3 ± 0.1,–,–
SSYSLSDMVSNIELPTRIHEEVYF [MIA2],2.35 ± 0.39,2.5 ± 0.6,–,–
STSLPDPGDFDRNVPRICGVCGDR [VDR],4.6 ± 0.2,4.56 ± 0.55,–,–
STTALGDKQRKANESKGTRESWDS [ELOA2],4.06 ± 0.49,4.34 ± 0.72,–,–
SVDIWAIGCVFAELLTGQPLWPGK [CDKL4],2.6 ± 1.3,3.02 ± 0.97,–,–
SVGCIFAEMFRRKPLFCGNSEADQ [CDK4],2.37 ± 0.2,2.58 ± 0.23,–,–

Sequence,protein stability index [1],protein stability index [2],"protein stability index (treatment: DMSO, c terminus: native)","protein stability index (treatment: MLN4924 1 uM, 8 h, c terminus: native)"
SVGHNNLIPLANTGIVNHTHSRMG [CARM1],3.47 ± 0.32,3.66 ± 0.2,–,–
SVNEHTEEGESLLCLACSAGYYEL [ANKRD17],2.64 ± 0.38,2.93 ± 0.29,–,–
SVPLAYFLLSQQTDLPECEQSSAR [TCF25],3.07 ± 0.25,2.89 ± 0.5,–,–
SVSLQINCQSVAQMNLLQKYSLLK [DLC1],2.2 ± 0.12,2.13 ± 0.22,–,–
SWEGLAVLDSLLLTLLPQLQEAWQ [RSAD1],3.27 ± 0.35,3.22 ± 0.52,–,–
SWNSQSSLLDVQRVPSFESFEDDC [ETS2],4.84 ± 0.17,4.67 ± 0.13,–,–
SYKIEEISPSTLKNSLFPSPISSI [KCNK9],2.6 ± 0.21,2.7 ± 0.33,–,–
SYRIHNGQKLVVPGLLGSMALSNH [FBXO3],2.35 ± 0.27,2.43 ± 0.31,–,–
SYSQSSNLFRHQRRHNAEKLLNVV [ZNF24],2.58 ± 0.27,2.97 ± 0.41,–,–
SYSREHEGRLRYPSRREPPPRRSR [CLK3],5.28 ± 0.2,5.01 ± 0.48,–,–
TAERITQLSAPHCKKLSLELGGKN [ALDH8A1],3.75 ± 0.21,3.98 ± 0.19,–,–
TCCYFKFIIEYYNIRPADSRWVRD [FBXO34],2.84 ± 1.2,2.29 ± 0.54,–,–
TCFVRDGKTYCKRDYVRLFGIKCA [ISL2],2.46 ± 0.18,2.17 ± 0.19,–,–
TDFFKNIMNFIDIVAIIPYFITLG [KCNA1],3.22 ± 0.62,3.6 ± 0.2,–,–
TDPGDVPAFLKWLSLASLLVYVAA [SLC2A12],2.37 ± 0.39,2.66 ± 1,–,–
THLEAQNRIKGCHDHLTLSVSRPE [PDLIM4],3.57 ± 0.18,3.66 ± 0.23,–,–
TINPSKRITAAEALKHPWISHRST [CAMK2A],3.06 ± 0.23,3.21 ± 0.2,–,–
TKCRKRKLERIARLEDKVKTLKAE [JUNB],4.28 ± 0.23,4.42 ± 0.29,–,–
TKSHSFRAMCQNGKLVYPSCEEK [CFHR2],–,–,3.813 ± 0.01,4.09 ± 0.12
TLCAVLERDTLSIRESRLFGAVVR [BTBD1],2.4 ± 0.38,2.22 ± 0.56,–,–
TLCQFPETLLGDPKRRMRYFDPLR [KCNA3],2.26 ± 0.14,2.5 ± 0.34,–,–
TPNASSPGNPTALANGTVQAPKQK [LPCAT4],5.31 ± 0.13,5.43 ± 0.15,–,–
